From patent US20250092158A1

B1: humanized anti-QSOX1 antibody H3newK2 (antibody, human IgG1, kappa, V domains shown)
VH: QVQLVESGGGLVQPGRSLRLSCTVSGFSLTGYGVNWFRQAPGKGLEWLGMIWGDGRTDYTASVKGRFTISRDGSKSIAYLQMNSLKTEDTAVYYCASDYYGSGSFAYWGQGTLVTVSS
VL: DIVMTQTPLSLSVTPGQPASISCKASQDVSTAVAWYLQKPGQPPQLLIHSASYRYTGVPDRFSGSGSGTDFTLKISRVEAEDVGVYYCQQHYSIPLTFGPGTKVDIKR
B2: humanized anti-QSOX1 antibody H3newK4 (antibody, human IgG1, kappa, V domains shown)
VH: B1 VH
VL: DIVMTQSPDSLAVSLGERATINCKASQDVSTAVAWYQQKPGQPPKLLIHSASYRYTGVPDRFSGSGSGTDFTLTISSLQAEDVAVYYCQQHYSIPLTFGQGTRLEIKR
B3: humanized anti-QSOX1 antibody H3K4 (antibody, human IgG1, kappa, V domains shown)
VH: QVQLVESGGGLVQPGGSLRLSCSVSGFSLTGYGVNWVRQAPGKGLEWLGMIWGDGRTDYADSVKGRFTISRDNSKNTLYLQMSSLRAEDTAVYYCASDYYGSGSFAYWGQGTLVTVSS
VL: B2 VL
B4: humanized anti-QSOX1 antibody H2bK4 (antibody, human IgG1, kappa, V domains shown)
VH: QITLKESGPTLVKPTQTLTLTCTVSGFSLTGYGVNWIRQPPGKALEWLGMIWGDGRTDYSPSLKSRLTITKDTSKNQVVLTMTNMDPVDTATYYCASDYYGSGSFAYWGRGTLVTVSS
VL: B2 VL

The binders below were run against human Quiescin Sulfhydryl Oxidase 1 (QSOX1) (human) (UniProt O00391) (assay: oxygen electrode assay of QSOX1 (25 nM) on DTT (200 uM), antibody varied, Morrison tight-binding fit).
Sequence of UniProt O00391 (O00391 33-546): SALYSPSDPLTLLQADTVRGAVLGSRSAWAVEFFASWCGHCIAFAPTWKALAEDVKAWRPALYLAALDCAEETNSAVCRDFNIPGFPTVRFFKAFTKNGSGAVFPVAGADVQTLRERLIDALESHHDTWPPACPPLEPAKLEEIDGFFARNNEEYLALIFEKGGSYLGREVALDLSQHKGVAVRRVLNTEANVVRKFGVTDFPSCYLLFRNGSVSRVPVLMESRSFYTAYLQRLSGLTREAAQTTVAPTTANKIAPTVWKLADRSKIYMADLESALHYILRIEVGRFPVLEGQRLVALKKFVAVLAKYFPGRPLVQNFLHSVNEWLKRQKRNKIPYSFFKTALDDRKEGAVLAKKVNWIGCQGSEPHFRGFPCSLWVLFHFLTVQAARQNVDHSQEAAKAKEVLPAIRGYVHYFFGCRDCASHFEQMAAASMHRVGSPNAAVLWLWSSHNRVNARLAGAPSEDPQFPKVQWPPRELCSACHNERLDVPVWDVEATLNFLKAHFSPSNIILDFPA

Binder | Ki
B1 | < 1 nM
B2 | < 1 nM
B3 | < 1 nM
B4 | < 1 nM
